B1: MmPylRS(IPYE): M. mazei PylRS with transplanted PACE mutations V31I, T56P, H62Y, A100E (protein, UniProt Q8PWY1 1-454, looked up, variant V31I T56P H62Y A100E)
Pyrrolysine--tRNA ligase: MDKKPLNTLISATGLWMSRTGTIHKIKHHEISRSKIYIEMACGDHLVVNNSRSSRPARALRYHKYRKTCKRCRVSDEDLNKFLTKANEDQTSVKVKVVSEPTRTKKAMPKSVARAPKPLENTEAAQAQPSGSKFSPAIPVSTQESVSVPASVSTSISSISTGATASALVKGNTNPITSMSAPVQASAPALTKSQTDRLEVLLNPKDEISLNSGKPFRELESELLSRRKKDLQQIYAEERENYLGKLEREITRFFVDRGFLEIKSPILIPLEYIERMGIDNDTELSKQIFRVDKNFCLRPMLAPNLYNYLRKLDRALPDPIKIFEIGPCYRKESDGKEHLEEFTMLNFCQMGSGCTRENLESIITDFLNHLGIDFKIVGDSCMVYGDTLDVMHGDLELSSAVVGPIPLDREWGIDKPWIGAGFGLERLLKVKHDFKNIKRAARSESYYNGISTNL
B2: MbPylRS(IPYE): M. barkeri PylRS with transplanted PACE mutations V31I, T56P, H62Y, A100E (protein, UniProt Q6WRH6 1-419, looked up, variant V31I T56P H62Y A100E)
Pyrrolysine--tRNA ligase: MDKKPLDVLISATGLWMSRTGTLHKIKHHEISRSKIYIEMACGDHLVVNNSRSCRPARAFRYHKYRKTCKRCRVSDEDINNFLTRSTESKNSVKVRVVSEPKVKKAMPKSVSRAPKPLENSVSAKASTNTSRSVPSPAKSTPNSSVPASAPAPSLTRSQLDRVEALLSPEDKISLNMAKPFRELEPELVTRRKNDFQRLYTNDREDYLGKLERDITKFFVDRGFLEIKSPILIPAEYVERMGINNDTELSKQIFRVDKNLCLRPMLAPTLYNYLRKLDRILPGPIKIFEVGPCYRKESDGKEHLEEFTMVNFCQMGSGCTRENLEALIKEFLDYLEIDFEIVGDSCMVYGDTLDIMHGDLELSSAVVGPVSLDREWGIDKPWIGAGFGLERLLKVMHGFKNIKRASRSESYYNGISTNL

Test system: luciferase position 361 and sfGFP amber suppression
Test: Amber suppression assays using several different reporters (luciferase and sfGFP)
Assay type: cell-based, E. coli
Details: BocK; IPYE variant vs parent enzyme; FIGS. 9B-9D
Protocol: S1030 cells (25 μL) were electroporated with the appropriate plasmid(s) and recovered in SOC media (New England Biolabs) for 1 h while shaking at 37° C. Transformed cells were plated and grown overnight at 37° C. on LB agar containing the antibiotics required for plasmid maintenance. Single colonies were used to inoculate 2-3 mL of DRM containing antibiotics and were grown overnight at 37° C. while shaking at 230 rpm. The saturated overnight cultures were diluted 100-fold in a 96-well deep well plate using 1 mL of DRM containing the required antibiotic and supplemented with 1 mM ncAA where denoted. […] The plate continued to incubate with shaking at 37° C. for an additional 2-3 h until maximum luminescence signal was observed. Each luminescence measurement was taken on 150 μL of each culture, which had been transferred to a 96-well black wall, clear bottom plate (Costar). The A600 and luminescence measurements from each well were taken using an Infinite M1000 Pro microplate reader (Tecan). […] The raw luminescence value from each well was divided by the background-subtracted A600 value of the corresponding well to provide the luminescence value normalized to cell density. […]

Row | Molecule | activity in amber suppression assays using several different reporters
1 | B1 | improved, albeit more modestly
2 | B2 | dramatically enhanced
